Reference: patent publication US7976843B2, “Method for screening peptides for use in immunotherapy” (Institut National de la Santa et de la Recherche Medicale …, priority 2000, dated 2011)
Where “and” joins values, the source holds several entries; their conditions need not be identical. Equal entries are not always repeated. Where two headings read alike, the source gives them in different places.

Key:
HLA A2.1 molecule [1] = molecular target: T1, HLA A2.1 molecule (Homo sapiens, UniProt P04439, D140Y/D185E/D98H/E176V/E277Q/G131W/G231S/I119V/I121R/I166T/I218V/L300P/L318F/N151K/N90K/P208A/P217A/Q86G/Q94H/R138H/R169H/T345S); format: binding; settings: for RA, Native peptides: HIV 1 peptides
[2] = tested on: RMAS-HHD targets loaded with peptide; test: Immunogenicity: CTL generation in HHD transgenic mice, 51Cr lysis of peptide-loaded targets; format: in vivo; settings: for killing of RMAS-HHD cells loaded with natural peptide or its P1Y variant: CTLs induced in HHD mice sensitized with the natural peptide, FIG. 1; for immunogenicity (in words): HHD mice (also humans); for percentage of HHD mice in which a CTL response is induced: mice sensitized with the peptide
HLA A2.1 molecule [3] = molecular target: T1, HLA A2.1 molecule; test: Stability of the peptide/HLA A2.1 complex (DC50) on T2 cells, flow cytometry; format: binding
Method: For each incubation time, the cells are then labeled, as indicated above, with the BB7.2 antibody, and analyzed by flow cytometry in order to evaluate the amount of peptide/HLA A2.1 complex present at their surface. […] The DC50 (dissociation complex: DC) is defined as being the time required for the loss of 50% of the HLA A2.1/peptide complexes stabilized at t=0.

EL-4/HHD cells = test: Antitumor protection after peptide vaccination, EL-4/HHD graft; settings: for tumor size at D28: 10 HHD mice, two injections two weeks apart, EL-4/HHD graft; for mice still alive at D80: 4 of 10 mice; for day from which mortality is observed: days after implantation of tumor cells; for number of mice showing no tumors at D28: ten mice per group
[4] = native peptides, relative affinity vs reference peptide HIVpol 589, lower RA = stronger binding
[5] = native TERT peptides, reference peptide HIVpol 589
[6] = difference between DC50 of P1Y variant and natural peptide, arrow in neighbouring cell gives direction
[7] = native peptides, time for loss of 50% of HLA A2.1/peptide complexes
[8] = HHD mice, 100 μg peptide s.c., responder: specific cytotoxicity >15% above unloaded targets
[9] = […], arrow in neighbouring cell gives direction

Substance: MLGTHTMEV [gp100 178]
- RA (HLA A2.1 molecule [1]; [4]): 0.3
- Responders/total mice ([2]; mouse, in vivo, sc): 4/6

Substance: FLFWLMDTYV [mp 534]
- RA (HLA A2.1 molecule [1]; [5]): 0.2
- DC50 (HLA A2.1 molecule [3]; native TERT peptides): >6 h

Substance: KLTGDENFTI [Tyrosinase 224]
- RA (HLA A2.1 molecule [1]; [4]): >50.0
- DC50 Y1-DC50 WT (HLA A2.1 molecule [3]; [6]): >2 h
- DC50 (HLA A2.1 molecule [3]; [7]): <2 h
- Responders/total mice [2, 8]: 0/6

Substance: VLYRYGSFSV [gp100 476, reference compound]
- RA (HLA A2.1 molecule [1]; [4]): 10.0
- DC50 Y1-DC50 WT (HLA A2.1 molecule [3]; [9]): 2 h
- DC50 (HLA A2.1 molecule [3]; [7]): 6 h
- killing of RMAS-HHD cells loaded with natural peptide or its P1Y variant [2]: same efficacy
- Responders/total mice [2, 8]: 8/10

Substance: AMLGTHTMEV [gp100 177, reference compound]
- RA (HLA A2.1 molecule [1]; [4]): 0.5
- DC50 Y1-DC50 WT (HLA A2.1 molecule [3]; [9]): 2 h
- DC50 (HLA A2.1 molecule [3]; [7]): >6 h
- killing of RMAS-HHD cells loaded with natural peptide or its P1Y variant [2]: same efficacy
- Responders/total mice ([2]; mouse, in vivo, sc): 3/5

Substance: VIYQYMDDL [V9L]
- RA, P1Y peptides (HLA A2.1 molecule [1]): 8.6
- RA, Native peptides (HLA A2.1 molecule [1]): >100
- DC, P1Y peptides (HLA A2.1 molecule [3]): <2 h

Substance: TDQVPFSV [gp100 209, reference compound]
- DC50 Y1-DC50 WT (HLA A2.1 molecule [3]; [9]): 2 h
- DC50 (HLA A2.1 molecule [3]; [7]): 4 h
- Responders/total mice ([2]; mouse, in vivo, sc): 4/6

Substance: QLLRSFFHFL [mp 545]
- RA (HLA A2.1 molecule [1]; [5]): 1.6
- DC50 (HLA A2.1 molecule [3]; native TERT peptides): >6 h
- tumor size at D28 (EL-4/HHD cells): 489±209 mm^2

Substance: LLGCAANWIL [HBV pol 765]
- RA (HLA A2.1 molecule [1]; [4]): 2.0
- DC50 Y1-DC50 WT (HLA A2.1 molecule [3]; [9]): 4 h
- DC50 (HLA A2.1 molecule [3]; [7]): 4 h

Substance: PLTFGWCFKL [P10L]
- RA, P1Y peptides (HLA A2.1 molecule [1]): 5
- RA, Native peptides (HLA A2.1 molecule [1]): >100

Substance: YLQVNSLQTV [mhp 988Y1]
- RA (HLA A2.1 molecule [1]): 2.1
- DC50 (HLA A2.1 molecule [3]; modified (P1Y) TERT peptides): >6 h
- mice still alive at D80 (EL-4/HHD cells): 40%
- tumor size at D28 (EL-4/HHD cells): 190±207 mm^2 and 213±160 mm^2
- day from which mortality is observed (EL-4/HHD cells): 40 days
- number of mice showing no tumors at D28 (EL-4/HHD cells): 4 mice

Substance: ILLVVVLGV [HER-2/neu 661]
- RA (HLA A2.1 molecule [1]; [4]): >60.0
- DC50 Y1-DC50 WT (HLA A2.1 molecule [3]; [6]): 2 h
- DC50 (HLA A2.1 molecule [3]; [7]): 2 to 4 h
- immunogenicity (in words) [2]: non-immunogenic
- Responders/total mice ([2]; mouse, in vivo, sc): 0/6

Substance: PLEEELPRL [HBV pol 594]
- RA (HLA A2.1 molecule [1]; [4]): 4.2
- DC50 Y1-DC50 WT (HLA A2.1 molecule [3]; [9]): >6 h
- DC50 (HLA A2.1 molecule [3]; [7]): <2 h
- Responders/total mice [2, 8]: 0/6

Substance: ALCRWGLLL [HER-2/neu 5]
- Responders/total mice [2, 8]: 5/6

Substance: PLTSIISAV [HER-2/neu 650]
- RA (HLA A2.1 molecule [1]): 1.4
- RA WT/RA Y1 (HLA A2.1 molecule [1]): 6.0
- DC50 (HLA A2.1 molecule [3]): <2 h
- DC50 Y1-DC50 WT (HLA A2.1 molecule [3]): >4 h
- immunogenicity (in words) [2]: nonimmunogenic
- Responders/total mice ([2]; mouse, in vivo, sc): 0/6

Substance: SLFDFFHFL [mp 797]
- RA (HLA A2.1 molecule [1]; [5]): 1.5
- DC50 (HLA A2.1 molecule [3]; native TERT peptides): >6 h
- tumor size at D28 (EL-4/HHD cells): 653±148 mm^2

Substance: ELVSEFSRM [HER-2/neu 971, reference compound]
- RA (HLA A2.1 molecule [1]; [4]): >70.0
- DC50 Y1-DC50 WT (HLA A2.1 molecule [3]; [9]): 2 h
- DC50 (HLA A2.1 molecule [3]; [7]): 2 h
- Responders/total mice ([2]; mouse, in vivo, sc): 0/6

Substance: ILAKFLHWL [mhp 540]
- RA (HLA A2.1 molecule [1]; [5]): 0.3
- DC50 (HLA A2.1 molecule [3]; native TERT peptides): >6 h

Substance: CLTSTVQLV [HER-2/neu 789]
- Responders/total mice [2, 8]: 4/6

Substance: YLFFYRKSV [mhp 572Y1]
- RA (HLA A2.1 molecule [1]): 2.2
- DC50 (HLA A2.1 molecule [3]; modified (P1Y) TERT peptides): 5 h
- mice still alive at D80 (EL-4/HHD cells): 40%
- tumor size at D28 (EL-4/HHD cells): 232±244 mm^2
- day from which mortality is observed (EL-4/HHD cells): 40 days
- number of mice showing no tumors at D28 (EL-4/HHD cells): 4 mice

Substance: YLIHHNTHL [HER-2/neu 466Y1]
- RA (HLA A2.1 molecule [1]): 1.4
- DC50 (HLA A2.1 molecule [3]): 6 h

Substance: GILGPVFTL [Flu M58, reference compound]
- RA (HLA A2.1 molecule [1]; [4]): 0.2
- DC50 (HLA A2.1 molecule [3]; [7]): >8 h
- Responders/total mice [2, 8]: 4/6

Substance: gp100 457Y1: P1Y variant of gp100 457 (YLDGTATLRL)
- percentage of HHD mice in which a CTL response is induced [2]: 75%

Substance: KLTPLCVSL [K9L]
- RA, P1Y peptides (HLA A2.1 molecule [1]): 0.7
- RA, Native peptides (HLA A2.1 molecule [1]): 1.35
- DC, P1Y peptides (HLA A2.1 molecule [3]): >6 h
- DC, Native peptides (HLA A2.1 molecule [3]; HIV 1 peptides): >6 h

Substance: PLVKLWYQL [P9L]
- RA, P1Y peptides (HLA A2.1 molecule [1]): 4.6
- RA, Native peptides (HLA A2.1 molecule [1]): >100
- DC, P1Y peptides (HLA A2.1 molecule [3]): <2 h

Substance: LLDDEAGPL [HBV pol 28]
- DC50 Y1-DC50 WT (HLA A2.1 molecule [3]; [9]): >2 h
- DC50 (HLA A2.1 molecule [3]; [7]): <2 h
- Responders/total mice [2, 8]: 0/6

Substance: gp100 177Y1: P1Y variant of gp100 177 (YMLGTHTMEV)
- percentage of HHD mice in which a CTL response is induced [2]: 75%
